Paper PMC9742495

B1: Sar mutated probe (dsDNA)
DNA 1: GTTCCATCTACTTCACC
DNA 2: GGTGAAGTAGATGGAAC
B2: Sar probe (dsDNA)
DNA 1: GGCGTCGAGCGCCAGGC
DNA 2: GCCTGGCGCTCGACGCC
B3: hrpG motif (dsDNA)
DNA 1: TTTTGTCCTGGCGTCGGGCGCCAGGCGTCGGCGTC
DNA 2: GACGCCGACGCCTGGCGCCCGACGCCAGGACAAAA
B4: hrpX motif (dsDNA)
DNA 1: GCTGCATACAATCGTGTGCGCCAGCGAGCTCGGCG
DNA 2: CGCCGAGCTCGCTGGCGCACACGATTGTATGCAGC

Biological target: Sar (PXO_RS20790) (Xanthomonas oryzae pv. oryzae PXO99A, UniProt A0A0K0GPT9 1-242)
Assay: EMSA

Binder | binding result
B1 | no binding
B2 | binds
B3 | binds
B4 | binds
